# Reference: PMC5792622 (Nature Communications, 2018)
# Target: the molecule itself
# Assay: crystal structure
protein,measurement,value
"hexon protein of HAdV5^HVR7 (human adenovirus type 5 with four mutations in hypervariable region 7 of the hexon) (natural protein, biotin (NHS-biotin), for the SPR only, also called HAdV5^HVR7 hexon) MATPSMMPQWSYMHISGQDASEYLSPGLVQFARATETYFSLNNKFRNPTVAPTHDVTTDRSQRLTLRFIPVDREDTAYSYKARFTLAVGDNRVLDMASTYFDIRGVLDRGPTFKPYSGTAYNALAPKGAPNPCEWDEAATALEINLEEEDDDNEDEVDEQAEQQKTHVFGQAPYSGINITKEGIQIGVEGQTPKYADKTFQPEPQIGESQWYETEINHAAGRVLKKTTPMKPCYGSYAKPTNENGGQGILVKQQNGKLESQVEMQFFSTTEATAGNGDNLTPKVVLYSEDVDIETPDTHISYMPTIKEGNSRELMGQQSMPNRPNYIAFRDNFIGLMYYNSTGNMGVLAGQASQLNAVVDLQDRNTELSYQLLLDSIGDRTRYFSMWNQAVDSYDPDVRIIENHGTEDELPNYCFPLGGVGNNSTYTKVKPKTGQENGWEKDATEFSDKNEIRVGNNFAMEINLNANLWRNFLYSNIALYLPDKLKYSPSNVKISDNPNTYDYMNKRVVAPGLVDCYINLGARWSLDYMDNVNPFNHHRNAGLRYRSMLLGNGRYVPFHIQVPQKFFAIKNLLLLPGSYTYEWNFRKDVNMVLQSSLGNDLRVDGASIKFDSICLYATFFPMAHNTASTLEAMLRNDTNDQSFNDYLSAANMLYPIPANATNVPISIPSRNWAAFRGWAFTRLKTKETPSLGSGYDPYYTYSGSIPYLDGTFYLNHTFKKVAITFDSSVSWPGNDRLLTPNEFEIKRSVDGEGYNVAQCNMTKDWFLVQMLANYNIGYQGFYIPESYKDRMYSFFRNFQPMSRQVVDDTKYKDYQQVGILHQHNNSGFVGYLAPTMREGQAYPANFPYPLIGKTAVDSITQKKFLCDRTLWRIPFSSNFMSMGALTDLGQNLLYANSAHALDMTFEVDPMDEPTLLYVLFEVFDVVRVHRPHRGVIETVYLRTPFSAGNATT",stoichiometry N,3
